According to patent US20110229459A1 (Chugai, published 2011):
Residue numbers refer to the chain shown, from its start.

Legend:
soluble human FcRn = biological target: T1, soluble human FcRn (human, UniProt P55899 24-290; P16213 21-119); assay: SPR (Biacore 3000), pH 6.0: antibody captured on the chip, human FcRn as analyte, steady state affinity
T1 construct: The stated ranges include the signal regions; also called hFcRn; complex of FcRn and β2-microglobulin
Description: The binding to human FcRn was assessed using Biacore 3000.
The affinity was calculated using BIAevaluation software. The obtained sensorgram was used to calculate the amount of hFcRn bound to the antibody immediately before the end of human FcRn injection. This was fitted by the steady state affinity method to calculate the affinity of human FcRn for the antibody.
The binding activities of huPM1-IgG1 and huPM1-M58 to human FcRn were assessed using BIAcore.

[1] = biological target: T2, cytoplasmic domain-lacking human NR10 on CHO cells (human, UniProt Q8NI17 20-553); assay: FMAT competition on hNR10-expressing CHO cells; blocked ligand: FMAT Blue-labeled hIL-31; mean +/- S.D. (n=3)
T2 construct: The construct lacks the cytoplasmic domain; also called hNR10-expressing CHO cells; hNR10
T2 sequence: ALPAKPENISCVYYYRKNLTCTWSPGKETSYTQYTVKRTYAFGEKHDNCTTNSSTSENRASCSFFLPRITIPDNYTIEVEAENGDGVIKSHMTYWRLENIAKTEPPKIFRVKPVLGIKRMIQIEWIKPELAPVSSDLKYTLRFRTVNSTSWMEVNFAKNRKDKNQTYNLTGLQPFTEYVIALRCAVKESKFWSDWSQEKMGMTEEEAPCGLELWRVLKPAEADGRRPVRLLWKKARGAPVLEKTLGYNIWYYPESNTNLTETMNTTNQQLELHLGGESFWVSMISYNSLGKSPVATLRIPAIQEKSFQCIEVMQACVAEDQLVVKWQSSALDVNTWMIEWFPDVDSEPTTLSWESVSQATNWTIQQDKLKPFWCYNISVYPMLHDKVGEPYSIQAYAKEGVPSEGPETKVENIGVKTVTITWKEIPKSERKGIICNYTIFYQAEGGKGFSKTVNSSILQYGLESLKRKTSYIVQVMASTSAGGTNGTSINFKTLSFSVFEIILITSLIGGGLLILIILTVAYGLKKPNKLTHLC
Description: Antibodies were assessed for the activity of inhibiting the IL-31/NR10 binding by using hNR10-expressing CHO cells as described below. The chimeric NS22 antibody and NS22_H0L0 (H chain, H0-SKSC/SEQ ID NO: 54; L chain, L0/SEQ ID NO: 56) were diluted at an appropriate concentration using Assay buffer (10 mM HEPES, 140 mM NaCl, 2.5 mM CaCl₂, 3 mM MgCl₂, 2% FBS, 0.01% NaN₃, pH7.4), and further eight serial dilutions were prepared at a common dilution ration of 2. The dilutions were added at 40 μl/well to plates (96-Well FMAT Plates, Applied Biosystems). Then, FMAT Blue-labeled hIL-31 was diluted 400 times with Assay buffer, and added at 20 μl/well. Finally, a cell suspension adjusted to 2.5×10⁵ cells/ml using Assay buffer was added at 40 μl/well (final 1×10⁴ cells/well). Two hours after addition of cells, the fluorescence (FL1) was measured using the 8200 Cellular Detection System (Applied Biosystems).
Each variant was tested for the activity of inhibiting the hIL-31/hNR10 binding by using FMAT. The test was carried out according to the method as described in Example 4.

rhNR10 = biological target: T3, rhNR10 (human, UniProt Q8NI17 20-519, limits assumed); assay: SPR (Biacore T100): antibody captured on Protein A, rhNR10 as analyte
T3 construct: also called recombinant human NR10; IL-31 receptor
T3 sequence: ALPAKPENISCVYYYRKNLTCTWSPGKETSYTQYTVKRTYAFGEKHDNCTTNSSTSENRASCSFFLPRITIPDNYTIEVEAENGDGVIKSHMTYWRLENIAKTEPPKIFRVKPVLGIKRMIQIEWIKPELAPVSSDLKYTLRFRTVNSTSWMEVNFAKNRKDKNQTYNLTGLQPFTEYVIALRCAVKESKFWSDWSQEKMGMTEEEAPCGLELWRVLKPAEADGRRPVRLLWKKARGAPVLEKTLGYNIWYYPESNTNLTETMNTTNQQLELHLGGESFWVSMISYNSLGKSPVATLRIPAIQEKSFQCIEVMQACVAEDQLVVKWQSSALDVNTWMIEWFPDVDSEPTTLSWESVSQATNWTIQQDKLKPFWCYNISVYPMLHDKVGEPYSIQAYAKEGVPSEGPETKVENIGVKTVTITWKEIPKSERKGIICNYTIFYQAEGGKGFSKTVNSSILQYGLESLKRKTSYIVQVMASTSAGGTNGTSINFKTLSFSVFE
Description: Kinetic analysis of the antigen-antibody reaction was carried out using Biacore T100 (GE Healthcare Biosciences). The antigen-antibody interaction was measured by immobilizing rec-Protein A (hereinafter Protein A) (ZYMED) onto a sensor chip, capturing an antibody on the immobilized Protein A, and then reacting the antigen as an analyte. Various concentrations of rhNR10 were used as the antigen. The kinetic parameters, association rate constant kₐ (1/Ms) and dissociation rate constant kd (1/s), were calculated from the sensorgrams obtained by the measurement. Then, KD (M) was determined based on the rate constants. Each parameter was determined using Biacore T100 Evaluation Software version 1.1 (GE Healthcare Biosciences).
The running buffer used was HBS-EP+. Each antibody was prepared at 0.25 μg/ml, or prepared so that about 100 RU would bind to Protein A. rhNR10 used as an analyte was prepared at 0, 38.5, 77.0, and 154 nM, or at 0, 19.25, and 77.01 nM using HBS-EP+. In the measurement, first, the antibody solution was captured on Protein A, and an analyte solution was reacted at a flow rate of 20 μL/min for three minutes. Then, the solution was switched to HBS-EP+, and the dissociation phase was measured for five minutes. […] The obtained sensorgrams were kinetically analyzed using the Biacore-specific data analysis software, Biacore T100 Evaluation Software Version 1.1.

T1 sequence (P55899 24-290 limits assumed, chain 1 of 2): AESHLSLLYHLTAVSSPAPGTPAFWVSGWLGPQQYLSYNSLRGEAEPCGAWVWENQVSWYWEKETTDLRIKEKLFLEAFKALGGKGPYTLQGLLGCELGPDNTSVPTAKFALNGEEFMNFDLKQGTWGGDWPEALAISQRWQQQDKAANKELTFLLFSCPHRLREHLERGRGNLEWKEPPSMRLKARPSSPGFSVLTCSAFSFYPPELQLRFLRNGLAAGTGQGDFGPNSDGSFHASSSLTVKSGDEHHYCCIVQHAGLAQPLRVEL
T1 sequence (P16213 21-119 limits assumed, chain 2 of 2): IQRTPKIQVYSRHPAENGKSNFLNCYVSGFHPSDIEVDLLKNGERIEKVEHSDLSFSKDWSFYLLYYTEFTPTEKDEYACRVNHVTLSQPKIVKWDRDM

B1: huPM1-M58 (humanized anti-IL-6 receptor antibody with constant region M58) (antibody)
heavy: QVQLQESGPGLVRPSQTLSLTCTVSGYSITSDHAWSWVRQPPGRGLEWIGYISYSGITTYNPSLKSRVTMLRDTSKNQFSLRLSSVTAADTAVYYCARSLARTTAMDYWGQGSLVTVSSASTKGPSVFPLAPSSKSTSGGTAALGCLVKDYFPEPVTVSWNSGALTSGVHTFPAVLQSSGLYSLSSVVTVPSSNFGTQTYTCNVDHKPSNTKVDKTVERKSCVECPPCPAPPVAGPSVFLFPPKPKDTLMISRTPEVTCVVVDVSQEDPEVQFNWYVDGVEVHNAKTKPREEQFNSTFRVVSVLTVVHQDWLNGKEYKCKVSNKGLPAPIEKTISKTKGQPREPQVYTLPPSQEEMTKNQVSLTCLVKGFYPSDIAVEWESNGQPENNYKTTPPMLDSDGSFFLYSKLTVDKSRWQEGNVFSCSVMHEALHNHYTQKSLSLSP
light: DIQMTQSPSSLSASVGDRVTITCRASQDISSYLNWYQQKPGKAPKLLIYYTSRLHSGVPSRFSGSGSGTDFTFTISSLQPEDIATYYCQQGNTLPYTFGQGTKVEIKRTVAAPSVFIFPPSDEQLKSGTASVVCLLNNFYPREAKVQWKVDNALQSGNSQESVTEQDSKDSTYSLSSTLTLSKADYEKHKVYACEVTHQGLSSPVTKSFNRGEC
notes: copies: 2 + 2
Soluble human FcRn
  fold binding activity against huPM1-IgG1: ~1.4 times

B2: Hp9 variant of H0L0 (antibody, V domains shown)
VH: QVQLVQSGAEVKKPGASVKVSCKASGYTFTGYIMNWVRQAPGQGLEWMGLINPYNGGTSYNQQFKGRVTITADESTSTAYMELSSLRSEDTAVYYCARDGYDDGPYTMDYWGQGTLVTVSS
VL: DIQMTQSPSSLSASVGDRVTITCRTSENIYSFLAWYQQKPGKAPKLLIYNAKTLAKGVPSRFSGSGSGTDFTLTISSLQPEDFATYYCQHHYESPLTFGGGTKVEIKR
notes: Variant of H0L0; also called Hp9-VH
[1]
  IC50 (read off the curve): ~0.09 µg/mL

B3: H0L12 (H chain, H0-M58; L chain, L12) (antibody, V domains shown)
VH: B2 VH with Q63K
VL: B2 VL with R24Q, N28D, L33V, K52Q, L54E, K56Q, E93D
rhNR10
  fold affinity against H0L0: ~2 times
